Results from patent publication US20260209386A1 (MYTHIC THERAPEUTICS, published 2026).

T1: Human PTK7 (human, UniProt Q13308 31-1070)
T1 sequence: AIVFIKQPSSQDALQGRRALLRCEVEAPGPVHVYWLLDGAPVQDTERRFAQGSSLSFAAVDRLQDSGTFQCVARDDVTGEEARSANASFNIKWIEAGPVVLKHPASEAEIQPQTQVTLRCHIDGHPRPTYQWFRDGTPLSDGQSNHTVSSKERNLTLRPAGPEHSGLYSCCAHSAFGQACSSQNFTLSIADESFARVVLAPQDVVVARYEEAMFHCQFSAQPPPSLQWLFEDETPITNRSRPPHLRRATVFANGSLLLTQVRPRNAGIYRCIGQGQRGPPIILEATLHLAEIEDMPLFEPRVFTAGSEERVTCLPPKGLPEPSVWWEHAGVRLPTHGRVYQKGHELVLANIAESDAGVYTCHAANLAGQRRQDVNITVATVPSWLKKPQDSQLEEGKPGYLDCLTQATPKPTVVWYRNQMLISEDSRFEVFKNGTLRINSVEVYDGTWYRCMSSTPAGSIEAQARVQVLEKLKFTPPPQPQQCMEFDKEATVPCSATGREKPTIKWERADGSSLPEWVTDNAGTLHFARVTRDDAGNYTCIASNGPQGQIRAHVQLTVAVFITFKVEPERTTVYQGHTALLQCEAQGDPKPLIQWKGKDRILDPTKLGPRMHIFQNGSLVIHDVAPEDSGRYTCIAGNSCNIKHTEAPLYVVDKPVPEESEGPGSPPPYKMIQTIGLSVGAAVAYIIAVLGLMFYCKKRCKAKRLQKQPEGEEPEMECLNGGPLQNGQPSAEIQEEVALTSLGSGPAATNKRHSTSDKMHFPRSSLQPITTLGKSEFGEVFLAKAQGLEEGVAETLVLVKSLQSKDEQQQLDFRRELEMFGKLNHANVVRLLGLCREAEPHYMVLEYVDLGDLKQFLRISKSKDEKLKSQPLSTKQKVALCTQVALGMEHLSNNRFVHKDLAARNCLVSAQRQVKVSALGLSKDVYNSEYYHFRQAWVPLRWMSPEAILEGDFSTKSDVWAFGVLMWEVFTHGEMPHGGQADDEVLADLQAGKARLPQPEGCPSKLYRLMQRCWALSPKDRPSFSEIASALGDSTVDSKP

T2: Human PTK7 Protein, His Tag (Acro Biosystems) (human, UniProt Q13308 31-704)
T2 construct: Bought His-tagged protein; also called CCK4; not shown: His tag
T2 sequence: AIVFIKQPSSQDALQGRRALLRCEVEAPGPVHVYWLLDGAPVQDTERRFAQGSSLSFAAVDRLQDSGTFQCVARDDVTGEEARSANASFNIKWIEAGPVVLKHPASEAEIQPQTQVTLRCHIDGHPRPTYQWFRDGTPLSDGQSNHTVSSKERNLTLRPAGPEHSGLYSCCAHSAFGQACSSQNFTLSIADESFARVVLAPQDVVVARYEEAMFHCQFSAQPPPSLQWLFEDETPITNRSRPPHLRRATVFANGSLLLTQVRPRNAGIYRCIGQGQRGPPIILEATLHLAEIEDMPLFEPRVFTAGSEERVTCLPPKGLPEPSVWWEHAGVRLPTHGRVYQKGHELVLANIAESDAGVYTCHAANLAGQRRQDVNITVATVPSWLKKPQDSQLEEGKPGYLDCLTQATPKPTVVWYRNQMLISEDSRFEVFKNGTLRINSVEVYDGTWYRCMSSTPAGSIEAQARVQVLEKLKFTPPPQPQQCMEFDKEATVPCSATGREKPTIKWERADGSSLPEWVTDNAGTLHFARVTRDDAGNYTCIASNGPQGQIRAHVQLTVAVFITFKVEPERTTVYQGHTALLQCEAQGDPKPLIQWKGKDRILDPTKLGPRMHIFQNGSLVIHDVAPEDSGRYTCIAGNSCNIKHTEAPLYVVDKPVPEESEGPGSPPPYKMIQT


Key:
Human PTK7 = molecular target: T1, Human PTK7; experiment: cell-based or functional assay
[1] = molecular target: T2, Human PTK7 Protein, His Tag (Acro …); experiment: BLI (Octet), antibody on anti-human Fc sensor, 50 nM PTK7; grade 2 = substantially similar binding relative to parent

Internalization, FOW @ 25 nM (fold over the wildtype, parental antibody) (Human PTK7) | binding result [1] | Binder
1.55 fold over parental antibody | – | MYT11316 (antibody, V domains shown) VH: EVQLVESGGGLVQPGGSLRLSCTASGIDLSRYSMGWVRQAPGKGLEWVGIISYGGSTYYASWAKGRFTISRDTSKNTVYLQMNSLRAEDTAVYFCARVGYPGYSGYGYAFDAFDPWGQGTLVTVSS VL: EIVMTQSPSTLSASVGDRVIITCQSSKSVYNDNWLHWYQQKPGKAPKLLIYGASTLASGVPSRFSGSGSGAEFTLTISSLQPDDFATYYCAGGYSSSSDNGFGQGTKLTVL
1.99 fold over parental antibody | – | MYT11328 (antibody, V domains shown) VH: EVQLVESGGGLVQPGGSLRLSCTASGIDLSRYSMGWVRQAPGKGLEWVGIISYGGSTYYASWAKGRFTISRDTSKNTVYLQMNSLRAEDTAVYFCARVGYPGYSGYGYAFDAFDPWGQGTLVTVSS VL: EIVMTQSPSTLSASVGDRVIITCQSSKSVYNDNWLSWYQQKPGKAPKLLIYGASTLASGVPSRFSGSGSGAEFTLTISSLQPDDFATYYCAGGYHSSSDNGFGQGTKLTVL
1.58 fold over parental antibody | – | MYT11324 (antibody, V domains shown) VH: EVQLVESGGGLVQPGGSLRLSCTASGIDLSRYSMGWVRQAPGKGLEWVGIISYGGSTYYASWAKGRFTISRDTSKNTVYLQMNSLRAEDTAVYFCARVGYPGYSGYGYAFDAFDPWGQGTLVTVSS VL: EIVMTQSPSTLSASVGDRVIITCQSSKSVYNDNWLSWYQQKPGKAPKLLIYGASTLASGVPSRFSGSGSGAEFTLTISSLQPDDFATYYCHGGYSSSSDNGFGQGTKLTVL
1.68 fold over parental antibody | – | MYT11337 (antibody, V domains shown) VH: EVQLVESGGGLVQPGGSLRLSCTASGIDLSRYSMGWVRQAPGKGLEWVGIISYGGSTYYASWAKGRFTISRDTSKNTVYLQMNSLRAEDTAVYFCARVGYPGYSGYGYAFDAFDPWGQGTLVTVSS VL: EIVMTQSPSTLSASVGDRVIITCQSSKSVYNDNWLSWYQQKPGKAPKLLIYGASTLASGVPSRFSGSGSGAEFTLTISSLQPDDFATYYCAGGYSSSSANGFGQGTKLTVL
1.29 fold over parental antibody | – | MYT11326 (antibody, V domains shown) VH: EVQLVESGGGLVQPGGSLRLSCTASGIDLSRYSMGWVRQAPGKGLEWVGIISYGGSTYYASWAKGRFTISRDTSKNTVYLQMNSLRAEDTAVYFCARVGYPGYSGYGYAFDAFDPWGQGTLVTVSS VL: EIVMTQSPSTLSASVGDRVIITCQSSKSVYNDNWLSWYQQKPGKAPKLLIYGASTLASGVPSRFSGSGSGAEFTLTISSLQPDDFATYYCAGHYSSSSDNGFGQGTKLTVL
1.77 fold over parental antibody | – | MYT11332 (antibody, V domains shown) VH: EVQLVESGGGLVQPGGSLRLSCTASGIDLSRYSMGWVRQAPGKGLEWVGIISYGGSTYYASWAKGRFTISRDTSKNTVYLQMNSLRAEDTAVYFCARVGYPGYSGYGYAFDAFDPWGQGTLVTVSS VL: EIVMTQSPSTLSASVGDRVIITCQSSKSVYNDNWLSWYQQKPGKAPKLLIYGASTLASGVPSRFSGSGSGAEFTLTISSLQPDDFATYYCAGGYSSSSHNGFGQGTKLTVL
1.36 fold over parental antibody | – | MYT11321 (antibody, V domains shown) VH: EVQLVESGGGLVQPGGSLRLSCTASGIDLSRYSMGWVRQAPGKGLEWVGIISYGGSTYYASWAKGRFTISRDTSKNTVYLQMNSLRAEDTAVYFCARVGYPGYSGYGYAFDAFDPWGQGTLVTVSS VL: EIVMTQSPSTLSASVGDRVIITCQSSKSVYNDNWLSWYQQKPGKAPKLLIYGASTHASGVPSRFSGSGSGAEFTLTISSLQPDDFATYYCAGGYSSSSDNGFGQGTKLTVL
1.77 fold over parental antibody | – | MYT11331 (antibody, V domains shown) VH: EVQLVESGGGLVQPGGSLRLSCTASGIDLSRYSMGWVRQAPGKGLEWVGIISYGGSTYYASWAKGRFTISRDTSKNTVYLQMNSLRAEDTAVYFCARVGYPGYSGYGYAFDAFDPWGQGTLVTVSS VL: EIVMTQSPSTLSASVGDRVIITCQSSKSVYNDNWLSWYQQKPGKAPKLLIYGASTLASGVPSRFSGSGSGAEFTLTISSLQPDDFATYYCAGGYSSSHDNGFGQGTKLTVL
1.6 fold over parental antibody | – | MYT11327 (antibody, V domains shown) VH: EVQLVESGGGLVQPGGSLRLSCTASGIDLSRYSMGWVRQAPGKGLEWVGIISYGGSTYYASWAKGRFTISRDTSKNTVYLQMNSLRAEDTAVYFCARVGYPGYSGYGYAFDAFDPWGQGTLVTVSS VL: EIVMTQSPSTLSASVGDRVIITCQSSKSVYNDNWLSWYQQKPGKAPKLLIYGASTLASGVPSRFSGSGSGAEFTLTISSLQPDDFATYYCAGGHSSSSDNGFGQGTKLTVL
– | binds | MYT11027 (antibody, V domains shown, MYT9361 HC variant) VH: EVQLVESGGGLVQPGGSLRLSCTASHLSLSSYWMSWVRQAPGKGLEWVGVISAGGNTYYANWAKGRFTISRDTSKNTVYLQMNSLRAEDTAVYFCARGDDGYTNAAYVSNLWGQGTLVTVSS VL: EIVMTQSPSTLSASVGDRVIITCQASQSISSWLSWYQQKPGKAPKLLIYKASTLASGVPSRFSGSGSGAEFTLTISSLQPDDFATYYCQSYFDSTTIAFGQGTKLTVL
– | binds | MYT11030 (antibody, V domains shown, MYT9361 HC variant) VH: EVQLVESGGGLVQPGGSLRLSCTASGLSHSSYWMSWVRQAPGKGLEWVGVISAGGNTYYANWAKGRFTISRDTSKNTVYLQMNSLRAEDTAVYFCARGDDGYTNAAYVSNLWGQGTLVTVSS VL: EIVMTQSPSTLSASVGDRVIITCQASQSISSWLSWYQQKPGKAPKLLIYKASTLASGVPSRFSGSGSGAEFTLTISSLQPDDFATYYCQSYFDSTTIAFGQGTKLTVL
– | binds | MYT11028 (antibody, V domains shown, MYT9361 HC variant) VH: EVQLVESGGGLVQPGGSLRLSCTASGHSLSSYWMSWVRQAPGKGLEWVGVISAGGNTYYANWAKGRFTISRDTSKNTVYLQMNSLRAEDTAVYFCARGDDGYTNAAYVSNLWGQGTLVTVSS VL: EIVMTQSPSTLSASVGDRVIITCQASQSISSWLSWYQQKPGKAPKLLIYKASTLASGVPSRFSGSGSGAEFTLTISSLQPDDFATYYCQSYFDSTTIAFGQGTKLTVL
– | binds | MYT11029 (antibody, V domains shown, MYT9361 HC variant) VH: EVQLVESGGGLVQPGGSLRLSCTASGLHLSSYWMSWVRQAPGKGLEWVGVISAGGNTYYANWAKGRFTISRDTSKNTVYLQMNSLRAEDTAVYFCARGDDGYTNAAYVSNLWGQGTLVTVSS VL: EIVMTQSPSTLSASVGDRVIITCQASQSISSWLSWYQQKPGKAPKLLIYKASTLASGVPSRFSGSGSGAEFTLTISSLQPDDFATYYCQSYFDSTTIAFGQGTKLTVL
1.16 fold over parental antibody | – | MYT11346 (antibody, V domains shown) VH: EVQLVESGGGLVQPGGSLRLSCTASGIDLSNYHVIWVRQAPGKGLEWVGIIYTYDTTYYANWAKGRFTISRDTSKNTVYLQMNSLRAEDTAVYFCARSFSDISDLIKLWGQGTLVTVSS VL: EIVMTQSPSTLSASVGDRVIITCQASQSLYNNKDLAWYQQKPGKAPKLLIYEASKLASGVPSRFSGSGSGAEFTLTISSLQPDDFATYYCLGEFSCGSGDCLAFGQGTKLTVL
1.19 fold over parental antibody | – | MYT11418 (antibody, V domains shown) VH: EVQLVESGGGLVQPGGSLRLSCTASGIDLSNYAVIWVRQAPGKGLEWVGIIYTYDTTYYANWAKGRFTISRDTSKNTVYLQMNSLRAEDTAVYFCARSFSDISDLIKLWGQGTLVTVSS VL: EIVMTQSPSTLSASVGDRVIITCQASQSLYNNKDLAWYQQKPGKAPKLLIYAASKLASGVPSRFSGSGSGAEFTLTISSLQPDDFATYYCLGEFSCGSGDCLAFGQGTKLTVL
